Assay results published in publication PMC10311653.

Molecular target: wildtype (WT) human interleukin-1β (human) (UniProt P01584)
Assay: ELISA; antigen (100 ng) coated on the plate; scFv-mFc added in 3% skim milk in DPBST, 2 h at 37 °C; EC50

EC50: 17.4 nM
B1: E64Kcr-H11-mFc (Fc fusion)
VH: EVQLQQSGAELVKPGASVRLSCTASGFNIKDYYMHWVKQRPEQGLEWIGWIDPENGDTEYAPKFQGKATMTADTSSNTAYLQLSSLTSEDTAVYYCNGYDDYWGQGTTLTVSS
VL: DIVMTQSQKFMSTSVGDRVSVTCKASQNVGTDVAWYQQKPGQSPKALIYSASYHYSGVPDRFTGTGSGTDFTLTISNVRSEDLAEYFCQQYNSYPYTFGGGTKLEIK
